Reference: patent US20140072613A1 (published 2014)

Legend:
Assay in all cases: cell-based or functional assay
WNK2(h) = WNK2(h) (human, UniProt Q9Y3S1 166-489, limits assumed)
p70S6K(h) = p70S6K(h) (human, UniProt P23443 1-421)
Fgr(h) = Fgr(h) (human, UniProt P09769 1-529)
Mnk2(h) = Mnk2(h) (human, UniProt Q9HBH9 1-465, limits assumed)
JNK1α1(h) = JNK1α1(h) (human, UniProt P45983-2 1-384)
PKCα(h) = PKCα(h) (human, UniProt P17252 1-672)
Met(Y1248H)(h) = Met(Y1248H)(h) (human, UniProt P08581-2 974-1408, limits assumed)
IKKβ(h) = target: T1, IKKβ(h) (human, UniProt O14920 1-756)
T1 sequence (looked up): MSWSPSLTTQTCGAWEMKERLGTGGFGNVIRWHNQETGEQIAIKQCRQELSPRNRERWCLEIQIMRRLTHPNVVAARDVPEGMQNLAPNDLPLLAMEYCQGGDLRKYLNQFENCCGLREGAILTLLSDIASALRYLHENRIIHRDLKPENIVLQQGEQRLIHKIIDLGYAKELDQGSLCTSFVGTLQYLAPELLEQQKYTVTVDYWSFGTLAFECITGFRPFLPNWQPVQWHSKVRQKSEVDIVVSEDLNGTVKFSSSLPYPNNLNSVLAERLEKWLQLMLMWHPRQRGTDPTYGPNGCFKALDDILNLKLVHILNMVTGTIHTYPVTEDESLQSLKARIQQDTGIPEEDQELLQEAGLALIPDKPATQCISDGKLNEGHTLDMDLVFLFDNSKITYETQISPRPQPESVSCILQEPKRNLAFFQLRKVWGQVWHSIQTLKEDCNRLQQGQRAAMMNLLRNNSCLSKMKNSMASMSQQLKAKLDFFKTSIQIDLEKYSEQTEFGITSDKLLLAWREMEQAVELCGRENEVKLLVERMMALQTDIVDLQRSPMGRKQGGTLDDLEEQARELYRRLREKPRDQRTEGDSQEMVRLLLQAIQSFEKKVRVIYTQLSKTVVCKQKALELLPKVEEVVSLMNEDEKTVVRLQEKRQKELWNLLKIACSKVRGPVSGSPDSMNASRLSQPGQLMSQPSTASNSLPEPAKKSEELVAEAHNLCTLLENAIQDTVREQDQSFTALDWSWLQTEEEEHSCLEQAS

NLK(h) = target: T2, NLK(h) (human, UniProt Q9UBE8 1-527, limits assumed)
T2 sequence (looked up): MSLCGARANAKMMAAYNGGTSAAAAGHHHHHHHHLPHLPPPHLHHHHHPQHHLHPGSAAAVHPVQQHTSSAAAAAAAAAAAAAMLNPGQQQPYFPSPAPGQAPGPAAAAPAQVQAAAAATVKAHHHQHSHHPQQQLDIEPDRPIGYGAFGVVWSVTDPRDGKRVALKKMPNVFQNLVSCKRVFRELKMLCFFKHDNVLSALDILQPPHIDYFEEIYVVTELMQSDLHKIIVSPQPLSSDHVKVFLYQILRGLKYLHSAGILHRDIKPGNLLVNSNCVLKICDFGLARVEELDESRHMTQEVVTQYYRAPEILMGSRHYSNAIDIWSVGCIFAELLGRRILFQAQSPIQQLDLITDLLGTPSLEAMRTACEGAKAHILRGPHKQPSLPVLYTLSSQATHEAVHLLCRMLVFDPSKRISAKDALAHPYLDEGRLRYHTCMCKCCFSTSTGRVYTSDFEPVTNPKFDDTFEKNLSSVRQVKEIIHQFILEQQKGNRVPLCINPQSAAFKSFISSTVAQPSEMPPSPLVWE

ZAP-70(h) = target: T3, ZAP-70(h) (human, UniProt P43403 1-619)
T3 sequence (looked up): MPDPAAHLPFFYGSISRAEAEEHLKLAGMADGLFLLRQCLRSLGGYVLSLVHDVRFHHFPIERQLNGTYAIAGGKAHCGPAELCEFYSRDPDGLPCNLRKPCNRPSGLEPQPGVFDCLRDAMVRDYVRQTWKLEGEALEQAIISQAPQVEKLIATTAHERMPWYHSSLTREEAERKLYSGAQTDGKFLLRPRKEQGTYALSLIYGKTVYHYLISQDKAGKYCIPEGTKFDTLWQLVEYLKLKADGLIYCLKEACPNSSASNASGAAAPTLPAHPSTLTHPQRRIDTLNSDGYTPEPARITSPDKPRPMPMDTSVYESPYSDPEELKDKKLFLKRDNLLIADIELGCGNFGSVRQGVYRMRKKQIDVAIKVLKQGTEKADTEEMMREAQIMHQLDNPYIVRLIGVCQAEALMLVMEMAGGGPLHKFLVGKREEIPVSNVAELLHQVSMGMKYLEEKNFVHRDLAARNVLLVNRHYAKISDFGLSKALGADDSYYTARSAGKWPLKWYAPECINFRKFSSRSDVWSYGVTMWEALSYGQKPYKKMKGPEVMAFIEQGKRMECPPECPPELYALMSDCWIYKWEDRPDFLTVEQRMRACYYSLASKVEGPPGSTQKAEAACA

Ros(h) = Ros(h) (human, UniProt P08922 1883-2347, limits assumed)
Chain of Ros(h) (P08922 1883-2347 limits assumed): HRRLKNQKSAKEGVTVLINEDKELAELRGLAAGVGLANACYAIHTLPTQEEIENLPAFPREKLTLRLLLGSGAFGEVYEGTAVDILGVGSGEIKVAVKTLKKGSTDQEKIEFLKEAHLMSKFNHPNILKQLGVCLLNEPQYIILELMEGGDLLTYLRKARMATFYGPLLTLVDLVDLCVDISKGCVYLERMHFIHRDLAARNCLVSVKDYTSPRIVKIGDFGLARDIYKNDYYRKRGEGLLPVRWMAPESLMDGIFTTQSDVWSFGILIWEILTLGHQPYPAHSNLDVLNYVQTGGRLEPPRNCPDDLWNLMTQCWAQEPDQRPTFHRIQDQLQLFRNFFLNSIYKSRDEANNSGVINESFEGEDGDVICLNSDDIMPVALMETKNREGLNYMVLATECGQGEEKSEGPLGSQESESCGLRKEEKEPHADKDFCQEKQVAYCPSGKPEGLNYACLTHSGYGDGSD

SGK(h) = target: T4, SGK(h) (human, UniProt O00141 60-431, limits assumed)
T4 sequence (looked up): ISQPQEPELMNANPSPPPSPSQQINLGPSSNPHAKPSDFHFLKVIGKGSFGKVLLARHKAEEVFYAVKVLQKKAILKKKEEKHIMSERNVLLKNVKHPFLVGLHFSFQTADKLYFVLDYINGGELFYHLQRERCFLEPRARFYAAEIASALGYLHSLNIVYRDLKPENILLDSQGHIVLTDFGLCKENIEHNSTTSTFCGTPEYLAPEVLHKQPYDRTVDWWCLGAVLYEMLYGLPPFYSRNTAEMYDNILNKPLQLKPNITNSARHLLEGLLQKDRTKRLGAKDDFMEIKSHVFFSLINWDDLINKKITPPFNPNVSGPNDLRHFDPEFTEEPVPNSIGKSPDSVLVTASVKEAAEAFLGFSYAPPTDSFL

PKGδ(h) = PKGδ(h) (human)
CDK5/p35(h) = CDK5/p35(h) (human, UniProt Q00535 1-292; Q15078 1-307)

Chain of p70S6K(h) (P23443 1-421): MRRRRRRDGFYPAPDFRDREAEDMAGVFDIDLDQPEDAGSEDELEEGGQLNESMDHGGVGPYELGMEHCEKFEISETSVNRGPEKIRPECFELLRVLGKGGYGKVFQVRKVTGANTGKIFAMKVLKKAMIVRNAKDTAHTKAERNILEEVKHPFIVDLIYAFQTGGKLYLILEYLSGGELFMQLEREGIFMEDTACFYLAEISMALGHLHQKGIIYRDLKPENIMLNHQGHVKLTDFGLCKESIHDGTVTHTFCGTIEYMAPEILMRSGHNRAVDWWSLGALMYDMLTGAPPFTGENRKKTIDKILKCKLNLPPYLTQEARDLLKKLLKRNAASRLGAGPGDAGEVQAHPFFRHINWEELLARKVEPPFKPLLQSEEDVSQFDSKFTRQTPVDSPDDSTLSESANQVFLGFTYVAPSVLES
Chain of WNK2(h) (Q9Y3S1 166-489 limits assumed): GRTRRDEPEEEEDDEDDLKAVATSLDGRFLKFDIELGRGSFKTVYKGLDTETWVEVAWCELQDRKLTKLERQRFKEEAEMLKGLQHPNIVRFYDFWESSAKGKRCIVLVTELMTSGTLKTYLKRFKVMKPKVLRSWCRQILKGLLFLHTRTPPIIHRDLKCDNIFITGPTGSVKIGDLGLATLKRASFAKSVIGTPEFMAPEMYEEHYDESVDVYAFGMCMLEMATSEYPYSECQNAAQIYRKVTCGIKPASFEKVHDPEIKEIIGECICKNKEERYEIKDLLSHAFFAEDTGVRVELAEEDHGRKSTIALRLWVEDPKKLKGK
Chain of JNK1α1(h) (P45983 other isoform, or with tags, fused parts or gaps limits assumed): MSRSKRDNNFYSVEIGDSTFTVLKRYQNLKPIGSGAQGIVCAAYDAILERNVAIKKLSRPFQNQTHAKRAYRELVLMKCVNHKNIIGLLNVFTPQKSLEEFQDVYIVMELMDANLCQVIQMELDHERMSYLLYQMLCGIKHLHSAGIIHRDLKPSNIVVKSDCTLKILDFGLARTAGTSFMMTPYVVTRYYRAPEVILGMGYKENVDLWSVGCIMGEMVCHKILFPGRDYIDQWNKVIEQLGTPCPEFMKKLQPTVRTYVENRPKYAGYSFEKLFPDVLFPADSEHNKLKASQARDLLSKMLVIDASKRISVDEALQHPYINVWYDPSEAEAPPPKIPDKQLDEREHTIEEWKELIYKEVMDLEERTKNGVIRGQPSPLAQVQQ
Chain of Mnk2(h) (Q9HBH9 whole entry): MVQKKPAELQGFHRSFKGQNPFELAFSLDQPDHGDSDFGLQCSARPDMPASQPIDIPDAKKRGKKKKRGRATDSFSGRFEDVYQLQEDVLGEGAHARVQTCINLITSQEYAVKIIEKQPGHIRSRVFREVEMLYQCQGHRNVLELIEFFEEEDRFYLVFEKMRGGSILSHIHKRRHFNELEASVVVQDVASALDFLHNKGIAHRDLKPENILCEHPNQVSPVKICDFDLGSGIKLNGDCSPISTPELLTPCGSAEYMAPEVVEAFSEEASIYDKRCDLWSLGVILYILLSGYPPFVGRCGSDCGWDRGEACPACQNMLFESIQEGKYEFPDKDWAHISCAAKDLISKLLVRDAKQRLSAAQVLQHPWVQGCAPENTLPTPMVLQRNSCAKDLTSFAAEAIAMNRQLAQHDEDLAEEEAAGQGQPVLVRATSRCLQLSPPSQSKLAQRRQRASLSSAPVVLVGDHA

Question: Which “% activity, 100 µM” value (WNK2(h)) does the source give for FAKLAARLYRKALARQLGVAA [MMI-0300] here?
Answer: 64%

Question: What about the “% activity, 100 µM” value (p70S6K(h)) of the same binder?
Answer: 35%

Question: What about the “% activity, 100 µM” value (Fgr(h)) of the same binder?
Answer: 60%

Question: And the “% activity, 100 µM” value (Mnk2(h))?
Answer: 89%

Question: What about the “% activity, 100 µM” value (JNK1α1(h)) of the same binder?
Answer: 97%

Question: What about the “% activity, 100 µM” value (PKCα(h)) of the same binder?
Answer: 89%

Question: What about the “% activity, 100 µM” value (Met(Y1248H)(h)) of the same binder?
Answer: 117%

Question: What about the “% activity, 100 µM” value (IKKβ(h)) of the same binder?
Answer: 84%

Question: What about the “% activity, 100 µM” value (NLK(h)) of the same binder?
Answer: 87%

Question: What about the “% activity, 100 µM” value (ZAP-70(h)) of the same binder?
Answer: 75%

Question: And the “% activity, 100 µM” value (Ros(h))?
Answer: 95%

Question: And the “% activity, 100 µM” value (SGK(h))?
Answer: 48%

Question: And the “% activity, 100 µM” value (PKGδ(h))?
Answer: 101%

Question: And the “% activity, 100 µM” value (CDK5/p35(h))?
Answer: 79%

Question: How did the “% activity, 100 µM” value (WNK2(h)) turn out when KAFAKLAARLYRKALARQLGVAA [MMI-0400] was run?
Answer: 54%

Question: And the “% activity, 100 µM” value (p70S6K(h))?
Answer: 33%

Question: What about the “% activity, 100 µM” value (Fgr(h)) of the same binder?
Answer: 47%

Question: And the “% activity, 100 µM” value (Mnk2(h))?
Answer: 86%

Question: And the “% activity, 100 µM” value (JNK1α1(h))?
Answer: 98%

Question: What about the “% activity, 100 µM” value (PKCα(h)) of the same binder?
Answer: 86%

Question: What about the “% activity, 100 µM” value (Met(Y1248H)(h)) of the same binder?
Answer: 63%

Question: What about the “% activity, 100 µM” value (IKKβ(h)) of the same binder?
Answer: 84%

Question: What about the “% activity, 100 µM” value (NLK(h)) of the same binder?
Answer: 90%

Question: And the “% activity, 100 µM” value (ZAP-70(h))?
Answer: 33%

Question: And the “% activity, 100 µM” value (Ros(h))?
Answer: 99%

Question: And the “% activity, 100 µM” value (SGK(h))?
Answer: 54%

Question: And the “% activity, 100 µM” value (PKGδ(h))?
Answer: 90%

Question: And the “% activity, 100 µM” value (CDK5/p35(h))?
Answer: 76%
